From patent US20240270846A1 (published 2024)

Target: T1, CD3 epsilon homodimer protein (UniProt P07766 23-126)
T1 construct: construct not described; homodimer as printed; also called CD3 (CD3 epsilon)
Experiment: SPR Biacore T200, CD3 epsilon homodimer immobilized; vs unaltered GLS3000;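 also: antibody variants flowed as analyte over CD3 epsilon homodimer amine-coupled to a CM4 chip, at 25 °C in HBS-EP+ running buffer, fitted with Biacore T200 Evaluation Software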

T1 sequence (P07766 23-126): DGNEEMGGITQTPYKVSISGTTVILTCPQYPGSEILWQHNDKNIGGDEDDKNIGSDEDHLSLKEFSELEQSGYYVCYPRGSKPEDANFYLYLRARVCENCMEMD

Row | KD ratio to GLS3000 (Affinity up) | Binder
1 | 0.82 | GLS3000 L33A (Kabat) L chain altered form, one-arm antibody with CE115HA000 (antibody, human IgG1, kappa, L234A L235A, N297A, name in Kabat numbering, one-arm antibody) heavy: QVQLVESGGGVVQPGRSLRLSCAASGFTFSNAWMHWVRQAPGKGLEWVAQIKAKSNNYATYYAESVKGRFTISRDDSKNSLYLQMNSLKTEDTAVYYCRYVHYGAYYGVDAWGQGTTVTVSSASTKGPSVFPLAPSSKSTSGGTAALGCLVKDYFPEPVTVSWNSGALTSGVHTFPAVLQSSGLYSLSSVVTVPSSSLGTQTYICNVNHKPSNTKVDKKVEPKSCDKTHTCPPCPAPEAAGGPSVFLFPPKPKDTLMISRTPEVTCVVVDVSHEDPEVKFNWYVDGVEVHNAKTKPREEQYASTYRVVSVLTVLHQDWLNGKEYKCKVSNKALPAPIEKTISKAKGQPREPQVYTLPPSRCELTKNQVSLSCAVKGFYPSDIAVEWESNGQPENNYKTTPPVLDSDGSFFLVSKLTVDKSRWQQGNVFSCSVMHEALHNHYTQKSLSLSPDYKDDDDK EPKSSDKTHTCPPCPAPELLGGPSVFLFPPKPKDTLMISRTPEVTCVVVDVSHEDPEVKFNWYVDGVEVHNAKTKPREEQYNSTYRVVSVLTVLHQDWLNGKEYKCKVSNKALPAPIEKTISKAKGQPREPQVCTLPPSRDELTKNQVSLWCLVKGFYPSDIAVEWESNGQPENNYKTTPPVLDSDGSFFLYSKLTVDKSRWQQGNVFSCSVMHEALHNRYTQKSLSLSP light: DIVMTQSPLSLPVTPGEPASISCRSSQSLVHSNRNTYAHWYQQKPGQAPRLLIYKVSNRFSGVPDRFSGSGSGTDFTLKISRVEAEDVGVYYCGQGTQVPYTFGQGTKLEIKRTVAAPSVFIFPPSDEQLKSGTASVVCLLNNFYPREAKVQWKVDNALQSGNSQESVTEQDSKDSTYSLSSTLTLSKADYEKHKVYACEVTHQGLSSPVTKSFNRGEC
2 | 4.18 | GLS3000 N28A (Kabat) L chain altered form, one-arm antibody with CE115HA000 (antibody, human IgG1, kappa, L234A L235A, N297A, name in Kabat numbering, one-arm antibody) heavy: QVQLVESGGGVVQPGRSLRLSCAASGFTFSNAWMHWVRQAPGKGLEWVAQIKAKSNNYATYYAESVKGRFTISRDDSKNSLYLQMNSLKTEDTAVYYCRYVHYGAYYGVDAWGQGTTVTVSSASTKGPSVFPLAPSSKSTSGGTAALGCLVKDYFPEPVTVSWNSGALTSGVHTFPAVLQSSGLYSLSSVVTVPSSSLGTQTYICNVNHKPSNTKVDKKVEPKSCDKTHTCPPCPAPEAAGGPSVFLFPPKPKDTLMISRTPEVTCVVVDVSHEDPEVKFNWYVDGVEVHNAKTKPREEQYASTYRVVSVLTVLHQDWLNGKEYKCKVSNKALPAPIEKTISKAKGQPREPQVYTLPPSRCELTKNQVSLSCAVKGFYPSDIAVEWESNGQPENNYKTTPPVLDSDGSFFLVSKLTVDKSRWQQGNVFSCSVMHEALHNHYTQKSLSLSPDYKDDDDK EPKSSDKTHTCPPCPAPELLGGPSVFLFPPKPKDTLMISRTPEVTCVVVDVSHEDPEVKFNWYVDGVEVHNAKTKPREEQYNSTYRVVSVLTVLHQDWLNGKEYKCKVSNKALPAPIEKTISKAKGQPREPQVCTLPPSRDELTKNQVSLWCLVKGFYPSDIAVEWESNGQPENNYKTTPPVLDSDGSFFLYSKLTVDKSRWQQGNVFSCSVMHEALHNRYTQKSLSLSP light: DIVMTQSPLSLPVTPGEPASISCRSSQSLVHSARNTYLHWYQQKPGQAPRLLIYKVSNRFSGVPDRFSGSGSGTDFTLKISRVEAEDVGVYYCGQGTQVPYTFGQGTKLEIKRTVAAPSVFIFPPSDEQLKSGTASVVCLLNNFYPREAKVQWKVDNALQSGNSQESVTEQDSKDSTYSLSSTLTLSKADYEKHKVYACEVTHQGLSSPVTKSFNRGEC

Second part, the binder before the results:

Row | Binder | KD ratio to GLS3000 (Affinity up)
3 | GLS3000 L27bS (Kabat) L chain altered form, one-arm antibody with CE115HA000 (antibody, human IgG1, kappa, L234A L235A, N297A, name in Kabat numbering, one-arm antibody) heavy: QVQLVESGGGVVQPGRSLRLSCAASGFTFSNAWMHWVRQAPGKGLEWVAQIKAKSNNYATYYAESVKGRFTISRDDSKNSLYLQMNSLKTEDTAVYYCRYVHYGAYYGVDAWGQGTTVTVSSASTKGPSVFPLAPSSKSTSGGTAALGCLVKDYFPEPVTVSWNSGALTSGVHTFPAVLQSSGLYSLSSVVTVPSSSLGTQTYICNVNHKPSNTKVDKKVEPKSCDKTHTCPPCPAPEAAGGPSVFLFPPKPKDTLMISRTPEVTCVVVDVSHEDPEVKFNWYVDGVEVHNAKTKPREEQYASTYRVVSVLTVLHQDWLNGKEYKCKVSNKALPAPIEKTISKAKGQPREPQVYTLPPSRCELTKNQVSLSCAVKGFYPSDIAVEWESNGQPENNYKTTPPVLDSDGSFFLVSKLTVDKSRWQQGNVFSCSVMHEALHNHYTQKSLSLSPDYKDDDDK EPKSSDKTHTCPPCPAPELLGGPSVFLFPPKPKDTLMISRTPEVTCVVVDVSHEDPEVKFNWYVDGVEVHNAKTKPREEQYNSTYRVVSVLTVLHQDWLNGKEYKCKVSNKALPAPIEKTISKAKGQPREPQVCTLPPSRDELTKNQVSLWCLVKGFYPSDIAVEWESNGQPENNYKTTPPVLDSDGSFFLYSKLTVDKSRWQQGNVFSCSVMHEALHNRYTQKSLSLSP light: DIVMTQSPLSLPVTPGEPASISCRSSQSSVHSNRNTYLHWYQQKPGQAPRLLIYKVSNRFSGVPDRFSGSGSGTDFTLKISRVEAEDVGVYYCGQGTQVPYTFGQGTKLEIKRTVAAPSVFIFPPSDEQLKSGTASVVCLLNNFYPREAKVQWKVDNALQSGNSQESVTEQDSKDSTYSLSSTLTLSKADYEKHKVYACEVTHQGLSSPVTKSFNRGEC | 0.9
4 | GLS3000 L27bW (Kabat) L chain altered form, one-arm antibody with CE115HA000 (antibody, human IgG1, kappa, L234A L235A, N297A, name in Kabat numbering, one-arm antibody) heavy: QVQLVESGGGVVQPGRSLRLSCAASGFTFSNAWMHWVRQAPGKGLEWVAQIKAKSNNYATYYAESVKGRFTISRDDSKNSLYLQMNSLKTEDTAVYYCRYVHYGAYYGVDAWGQGTTVTVSSASTKGPSVFPLAPSSKSTSGGTAALGCLVKDYFPEPVTVSWNSGALTSGVHTFPAVLQSSGLYSLSSVVTVPSSSLGTQTYICNVNHKPSNTKVDKKVEPKSCDKTHTCPPCPAPEAAGGPSVFLFPPKPKDTLMISRTPEVTCVVVDVSHEDPEVKFNWYVDGVEVHNAKTKPREEQYASTYRVVSVLTVLHQDWLNGKEYKCKVSNKALPAPIEKTISKAKGQPREPQVYTLPPSRCELTKNQVSLSCAVKGFYPSDIAVEWESNGQPENNYKTTPPVLDSDGSFFLVSKLTVDKSRWQQGNVFSCSVMHEALHNHYTQKSLSLSPDYKDDDDK EPKSSDKTHTCPPCPAPELLGGPSVFLFPPKPKDTLMISRTPEVTCVVVDVSHEDPEVKFNWYVDGVEVHNAKTKPREEQYNSTYRVVSVLTVLHQDWLNGKEYKCKVSNKALPAPIEKTISKAKGQPREPQVCTLPPSRDELTKNQVSLWCLVKGFYPSDIAVEWESNGQPENNYKTTPPVLDSDGSFFLYSKLTVDKSRWQQGNVFSCSVMHEALHNRYTQKSLSLSP light: DIVMTQSPLSLPVTPGEPASISCRSSQSWVHSNRNTYLHWYQQKPGQAPRLLIYKVSNRFSGVPDRFSGSGSGTDFTLKISRVEAEDVGVYYCGQGTQVPYTFGQGTKLEIKRTVAAPSVFIFPPSDEQLKSGTASVVCLLNNFYPREAKVQWKVDNALQSGNSQESVTEQDSKDSTYSLSSTLTLSKADYEKHKVYACEVTHQGLSSPVTKSFNRGEC | 23.6
5 | GLS3000 L27bY (Kabat) L chain altered form, one-arm antibody with CE115HA000 (antibody, human IgG1, kappa, L234A L235A, N297A, name in Kabat numbering, one-arm antibody) heavy: QVQLVESGGGVVQPGRSLRLSCAASGFTFSNAWMHWVRQAPGKGLEWVAQIKAKSNNYATYYAESVKGRFTISRDDSKNSLYLQMNSLKTEDTAVYYCRYVHYGAYYGVDAWGQGTTVTVSSASTKGPSVFPLAPSSKSTSGGTAALGCLVKDYFPEPVTVSWNSGALTSGVHTFPAVLQSSGLYSLSSVVTVPSSSLGTQTYICNVNHKPSNTKVDKKVEPKSCDKTHTCPPCPAPEAAGGPSVFLFPPKPKDTLMISRTPEVTCVVVDVSHEDPEVKFNWYVDGVEVHNAKTKPREEQYASTYRVVSVLTVLHQDWLNGKEYKCKVSNKALPAPIEKTISKAKGQPREPQVYTLPPSRCELTKNQVSLSCAVKGFYPSDIAVEWESNGQPENNYKTTPPVLDSDGSFFLVSKLTVDKSRWQQGNVFSCSVMHEALHNHYTQKSLSLSPDYKDDDDK EPKSSDKTHTCPPCPAPELLGGPSVFLFPPKPKDTLMISRTPEVTCVVVDVSHEDPEVKFNWYVDGVEVHNAKTKPREEQYNSTYRVVSVLTVLHQDWLNGKEYKCKVSNKALPAPIEKTISKAKGQPREPQVCTLPPSRDELTKNQVSLWCLVKGFYPSDIAVEWESNGQPENNYKTTPPVLDSDGSFFLYSKLTVDKSRWQQGNVFSCSVMHEALHNRYTQKSLSLSP light: DIVMTQSPLSLPVTPGEPASISCRSSQSYVHSNRNTYLHWYQQKPGQAPRLLIYKVSNRFSGVPDRFSGSGSGTDFTLKISRVEAEDVGVYYCGQGTQVPYTFGQGTKLEIKRTVAAPSVFIFPPSDEQLKSGTASVVCLLNNFYPREAKVQWKVDNALQSGNSQESVTEQDSKDSTYSLSSTLTLSKADYEKHKVYACEVTHQGLSSPVTKSFNRGEC | 22.2
6 | GLS3000 L27bV (Kabat) L chain altered form, one-arm antibody with CE115HA000 (antibody, human IgG1, kappa, L234A L235A, N297A, name in Kabat numbering, one-arm antibody) heavy: QVQLVESGGGVVQPGRSLRLSCAASGFTFSNAWMHWVRQAPGKGLEWVAQIKAKSNNYATYYAESVKGRFTISRDDSKNSLYLQMNSLKTEDTAVYYCRYVHYGAYYGVDAWGQGTTVTVSSASTKGPSVFPLAPSSKSTSGGTAALGCLVKDYFPEPVTVSWNSGALTSGVHTFPAVLQSSGLYSLSSVVTVPSSSLGTQTYICNVNHKPSNTKVDKKVEPKSCDKTHTCPPCPAPEAAGGPSVFLFPPKPKDTLMISRTPEVTCVVVDVSHEDPEVKFNWYVDGVEVHNAKTKPREEQYASTYRVVSVLTVLHQDWLNGKEYKCKVSNKALPAPIEKTISKAKGQPREPQVYTLPPSRCELTKNQVSLSCAVKGFYPSDIAVEWESNGQPENNYKTTPPVLDSDGSFFLVSKLTVDKSRWQQGNVFSCSVMHEALHNHYTQKSLSLSPDYKDDDDK EPKSSDKTHTCPPCPAPELLGGPSVFLFPPKPKDTLMISRTPEVTCVVVDVSHEDPEVKFNWYVDGVEVHNAKTKPREEQYNSTYRVVSVLTVLHQDWLNGKEYKCKVSNKALPAPIEKTISKAKGQPREPQVCTLPPSRDELTKNQVSLWCLVKGFYPSDIAVEWESNGQPENNYKTTPPVLDSDGSFFLYSKLTVDKSRWQQGNVFSCSVMHEALHNRYTQKSLSLSP light: DIVMTQSPLSLPVTPGEPASISCRSSQSVVHSNRNTYLHWYQQKPGQAPRLLIYKVSNRFSGVPDRFSGSGSGTDFTLKISRVEAEDVGVYYCGQGTQVPYTFGQGTKLEIKRTVAAPSVFIFPPSDEQLKSGTASVVCLLNNFYPREAKVQWKVDNALQSGNSQESVTEQDSKDSTYSLSSTLTLSKADYEKHKVYACEVTHQGLSSPVTKSFNRGEC | 1.11
